B1: domain 3 of EF-Tu: Polypeptide containing solely domain 3 (amino acids 299 to 394) of E. coli EF-Tu, expressed intracellularly from an introduced gene segment (protein)
chain: IKPHTKFESEVYILSKDEGGRHTPFFKGYRPQFYFRTTDVTGTIELPEGVEMVMPGDNIKMVVTLIHPIAMDDGLRFAIREGGRTVGAGVVAKVLG

System: E. coli
Test: Tests with E. coli: expression of the domain 3 of EF-Tu in cells, electron microscope pictures
Type: cell-based, Escherichia coli
Description: One especially advantageous procedure of the invention is as follows. The DNA segment of the EF-Tu gene of Escherichia coli that codes for the domain 3 is obtained and by means of molecular-genetic techniques is transferred into E. coli cells and expressed. In addition to this recombinant segment that contains solely the domain 3, but not domains 1 and 2 of EF-Tu, the cells as before have the native EF-Tu gene and can express it. The additionally synthesized domain 3 polypeptides, however, compete with the native EF-Tu proteins around the binding sites for the formation of the protofilaments. If a domain-3 polypeptide instead of a native EF-Tu protein is incorporated as a link, this leads to chain rupture as a result of the absence of the second binding site (the domain 2 is essential for chain formation) on the domain-3 polypeptide. […] As a result of the loss of integrity of the cytoskeleton, the cytoplasmic membrane of the cell loses it suspension. […] In this way, the cell wall that in the living bacteria cell is positioned and supported by the cytoplasmic membrane is destroyed (see FIG. 5). The loss of the cell wall and the cytoplasmic membrane means exposure of the contents of the cell so that the cell is lysed (cf. FIGS. 5 and 6). The cell contents can thus be recovered without further cell digestion.
Tests with E. coli, Electron microscope pictures, negative contrasting • a) Intact bacteria cells, containing their chromosome and in addition an empty vector (plasmid) that was used in continuing tests as a vector for introducing the domain-3 gene segment. These cells therefore represent controls. • b) Cells of a young culture. A plasmid that in expressible form contains the gene segment that codes for the domain 3 of EF-Tu had been introduced into these cells before the start of cultivation, in addition to its own native chromosome (that does contain the gene that codes intact EF-Tu). The effect of the expression of this “truncated” gene can be clearly seen: In addition to some cells that appear intact (they are recognizable as already weakened in their cell coating with a more exact analysis), the picture is determined by cell residues that indicate the original cell form, but have neither a wall nor CM. The wall and the CM have lost their suspension by destabilization of the cytoskeleton. […] The onetime cell form can no longer be detected; the cell residues form unorganized aggregations

[1] = ultrathin section, expressed in addition to the cell's own EF-Tu

Row | Molecule | state of the cells in electron microscope picture [1] | state of the cells in electron microscope picture (negative contrasting, cells of a young culture, plasmid expression in addition to native EF-Tu) | state of the cells in electron microscope picture (negative contrasting, old culture)
1 | EF-Tu: Full-length bacterial elongation factor EF-Tu introduced by genetic engineering and expressed in addition to the cell's own EF-Tu (control) [reference compound] | the cell is intact | – | –
2 | B1 | End stage of the dissolution of the cells | The cell contents are exposed | End stage of the dissolution of the cells
